Like-named read-outs stand apart in the source and are kept apart here.
Tests used:
[1] = biological target: T1, Human MUC17 ECD4131-his (His-tagged human MUC17 protein extracellular domain fusion protein) (human, UniProt Q685J3 4131-4393); test: ELISA on coated human MUC17 ECD4131-his, OD450
T1 construct: a truncation of the extracellular domain; also called human MUC17-his protein; human MUC17-His
Method: (§1) A human MUC17-his protein was diluted with PBS to a final concentration of […] and then added to a 96-well ELISA plate at 50 µL/well. The plate was incubated at 4° C. overnight. The next day, the plate was washed 2 times with PBST, and a blocking buffer [PBS+2% (w/w) BSA] was added for blocking at room temperature for 2 h. The blocking buffer was discarded, and the recombinant antibody and positive and negative control antibody with a starting concentration of 100 nM serially diluted by 3 folds were added at 50 μL/well. After incubation at 37° C. for 1 h, the plate was washed 3 times with PBST. A horseradish peroxidase (HRP)-labeled secondary antibody (purchased from Merck, Cat. No. AP113P) was added for incubation at 37° C. for 1 h, and the plate was washed 5 times with PBST. A TMB substrate was added at 50 μL/well for incubation at room temperature for 10 min, and then a stop solution (1.0 M HCl) was added at 50 µL/well. The OD₄₅₀ nm values were read by an ELISA plate reader (Multimode Plate Reader, EnSight, purchased from Perkin Elmer).

[2] = biological target: T1, Human MUC17 ECD4131-his (His-tagged …); test: ELISA on coated human MUC17 ECD4131-his, OD450; remark: listed apart in the source
Method: as §1

[3] = biological target: T2, human MUC17 on NUGC4 endogenous tumor cells (human, UniProt Q685J3 26-4493); test: FACS on NUGC4 cells, MFI
Method: (§2) Then a complete medium was added to stop the digestion, and the cells were blown into a single cell suspension. After counting, the cells were centrifuged, and the cell pellet was resuspended to 2×10⁶ cells/mL in an FACS buffer (PBS+2% fetal bovine serum), and added to a 96-well FACS reaction plate at 100 µL/well. The plate was centrifuged, and the supernatant was discarded. An antibody sample to be tested (diluted in a 3-fold gradient from a starting concentration of 100 nM) was added at 50 µL/well and uniformly mixed with the cells, and the mixture was incubated at 4° C. for 1 h. […] The results were tested and analyzed by FACS (FACS Canto™, purchased from BD) after the plate was centrifuged and washed 3 times with a PBS buffer and resuspended with 100 μL of PBS. Data analysis was performed by software (FlowJo) to obtain the mean fluorescence intensity (MFI) of the cells. Then, analysis was performed by software (GraphPad Prism8), data were fitted, and EC50 values were calculated. As shown in FIGS. 3A-3B, the recombinant antibodies Lab315-huFc, Lab316-huFc, Lab320-huFc, Lab331-huFc, and Lab332-huFc are all capable of binding specifically to NUGC-4 cells.
The preparation of the assay cells and the antibodies to be tested and the assay were performed with reference to Example 3.4. […]

[4] = biological target: T2, human MUC17 on NUGC4 endogenous tumor …; test: FACS on NUGC4 cells, MFI; remark: listed apart in the source
Method: as §2

B1: 2D11-hIgG1 (antibody, V domains shown)
VH: QVQLVESGGGVVQPGRSLRLSCAASGFTFSNHGMHWVRQAPGKCLEWVAGIWSDASNKYYAEAVKGRFTISRDTSKNTLYLQMNSLRAEDTAVYYCARATYTTGWSYFDYWGQGTLVTVSS
VL: SYELTQSPSVSVSPGQTASITCSGDKLGDKYTSWYQQKPGQSPVLVIYHDRKRPSGIPERFSGSNSGNTATLTISGTQAMDEADYYCQAYDRSTAWVFGCGTKLTVLR
notes: Control antibody from WO2019133961A1, expressed as human IgG1 + kappa; also called 21D11; MUC17 control antibody
- EC50 (read off the curve) [1]: ~40 pM
- EC50 (read off the curve) [2]: ~6 pM
- EC50 (read off the curve) [3]: ~100 pM
- EC50 (read off the curve) [4]: ~70 pM

— patent US20250297030A1 (SHANDONG SIMCERE BIOPHARMACEUTICAL, published 2025)
